Assay results reported in paper PMC4513882.

Biological target: SAMHD1 wt (human) (UniProt Q9Y3Z3)
Experiment: AFM

Chain of SAMHD1 wt (human) (Q9Y3Z3 whole entry): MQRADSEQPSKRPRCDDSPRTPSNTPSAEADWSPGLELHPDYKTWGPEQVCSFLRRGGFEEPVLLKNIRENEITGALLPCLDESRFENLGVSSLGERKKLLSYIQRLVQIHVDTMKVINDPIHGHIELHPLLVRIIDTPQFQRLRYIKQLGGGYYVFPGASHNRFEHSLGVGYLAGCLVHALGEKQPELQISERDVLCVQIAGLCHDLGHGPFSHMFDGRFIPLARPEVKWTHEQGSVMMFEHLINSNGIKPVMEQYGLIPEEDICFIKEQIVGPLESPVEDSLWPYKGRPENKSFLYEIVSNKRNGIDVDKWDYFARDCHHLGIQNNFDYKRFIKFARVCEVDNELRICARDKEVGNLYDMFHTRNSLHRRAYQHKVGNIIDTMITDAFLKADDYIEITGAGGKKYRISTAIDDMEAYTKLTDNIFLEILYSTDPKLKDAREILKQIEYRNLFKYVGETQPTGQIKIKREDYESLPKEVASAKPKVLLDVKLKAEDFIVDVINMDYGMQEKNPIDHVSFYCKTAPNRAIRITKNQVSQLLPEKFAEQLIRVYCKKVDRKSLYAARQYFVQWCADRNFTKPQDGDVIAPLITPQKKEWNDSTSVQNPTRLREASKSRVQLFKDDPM

Substance | binding signal (% ssDNA ends bound) | binding signal (% ssRNA ends bound)
AFM DNA, 295 bp duplex with 60 nt ssDNA overhang | 26 | –
GGUUAUUCUCUUAUUUAUUCUAUCUAUCUCUCUCUUCUCUAUUUCCUCACAUCCUCUCUCACUCUCUAUCUCUAUCUCCUCUCUCUUCUCUCUCUCUCUCUCUCCUCUCUAUAUUCUUCUCUCUUCUCUCCUCUCCUCUCUCUCUCUCUUUAUUCUUCCACUUUUUUCCUUCUCACUUCUCUUCUUCUUUAUUCUUCUCAUCUCAUCUCAUCUCAUCUCAUCUCAUCUCAUCUCAUCUCAUCUCAUCUCAUCUCAUCUCAUCUCAUCUCAUCUCAUCUCAUCUCAUCUCAUCUCAUCUCAUCUCAGG / TGAGAAGAATAAAGAAGAAGAGAAGTGAGAAGGAAAAAAGTGGAAGAATAAAGAGAGAGAGAGAGGAGAGGAGAGAAGAGAGAAGAATATAGAGAGGAGAGAGAGAGAGAGAGAAGAGAGAGGAGATAGAGATAGAGAGTGAGAGAGGATGTGAGGAAATAGAGAAGAGAGAGATAGATAGAATAAATAAGAGAATAACC [AFM RNA, 200 bp RNA:DNA duplex with 102 nt ssRNA overhang] | – | 84
